Laboratory results reported in publication PMC7276532, “C-terminal eYFP fusion impairs Escherichia coli MinE function” (Open Biology, 2020).

T1: Strep-MinD^D40AΔ10 (E. coli, UniProt P0AEZ3 1-260, D40A)
T1 construct: MinD, E. coli, with D40A and lacking the last 10 amino acids; the reverse primer anneals 33 nucleotides upstream of the stop codon of minD; Cloned into the pET28a backbone without the region between NcoI and HindIII, so without the His and T7 tags; also called MinD^D40Δ10; source: E. coli Rosetta (DE3) pLysS, purified (Strep-Tactin cartridge, desalting); not shown: Strep-tag, N-terminal, kept
T1 sequence (looked up): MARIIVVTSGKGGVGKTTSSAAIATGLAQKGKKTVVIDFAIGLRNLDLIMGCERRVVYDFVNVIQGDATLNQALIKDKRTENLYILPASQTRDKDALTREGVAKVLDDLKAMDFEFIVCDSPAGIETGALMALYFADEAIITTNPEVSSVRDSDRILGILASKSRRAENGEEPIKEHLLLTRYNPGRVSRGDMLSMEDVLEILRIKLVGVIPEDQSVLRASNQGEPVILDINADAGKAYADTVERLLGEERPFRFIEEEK

B1: His-MinE (natural protein, E. coli, UniProt P0A734 1-88, looked up)
chain: MALLDFFLSRKKNTANIAKERLQIIVAERRRSDAEPHYLPQLRKDILEVICKYVQIDPEMVTVQLEQKDGDISILELNVTLPEAEELK
notes: MinE, E. coli; the minE gene amplified from the MG1655 genome into pET28a (BamHI/HindIII); 88 amino acids; The same construct as m1, with the His-tag kept for the pull-down; source: E. coli Rosetta (DE3) pLysS, purified (IMAC nickel column, desalting); not shown: His6, N-terminal, kept
B2: MinE (untagged MinE; His-tag removed with thrombin) (natural protein, E. coli, UniProt P0A734 1-88, looked up)
chain: MALLDFFLSRKKNTANIAKERLQIIVAERRRSDAEPHYLPQLRKDILEVICKYVQIDPEMVTVQLEQKDGDISILELNVTLPEAEELK
notes: MinE, E. coli; the minE gene amplified from the MG1655 genome into pET28a (BamHI/HindIII); 88 amino acids; Eluted as a tetramer in SEC; also called wild-type; source: E. coli Rosetta (DE3) pLysS, purified (IMAC nickel column, desalting), His-tag removed with thrombin; not shown: His6, N-terminal, cleaved

Assays:
[1] = target: T1, Strep-MinD^D40AΔ10; test: pull-down; about 5 µM His-MinE or His-MinE-eYFP on MagneHis beads with 3 µM Strep-MinD^D40AΔ10, with ATP (1 mM), 5 mM MgCl2, 50 mM HEPES-KOH pH 7.25, 150 mM KCl, 10% glycerol, room temperature, 15 min; eluted with imidazole; settings: both partners purified
[2] = target: the molecule itself; test: SEC; Superdex 200, 13 µM protein injected, 50 mM HEPES-KOH pH 7.25, 150 mM KCl, 0.1 mM EDTA, 10% glycerol, room temperature; size judged against BSA (66 kDa) and carbonic anhydrase (29 kDa)

Binder	binding result [1]	stoichiometry N [2]
B1	binds	–
B2	–	4
